Consider one molecule from paper doi:10.1101/2023.01.23.525163.

As a reminder, the Kd is the equilibrium constant for the complex coming apart.

The target of the assay is His-caltubin-Tat (cell-penetrating caltubin) (Lymnaea stagnalis | HIV). In words: ITC.

Molecule Ac-LDHKFDLMYAKRAFV-NH2 [L391 peptide (synthetic, TUBA1 L391-V405)] displayed a Kd of 3.42 µM.
